US20210403582A1 (JACOBIO PHARMACEUTICALS, published 2021)
Where two headings read alike, the source gives them in different places.

T1: human OSM (human, UniProt P13725 26-221, limits assumed)
T1 sequence (looked up): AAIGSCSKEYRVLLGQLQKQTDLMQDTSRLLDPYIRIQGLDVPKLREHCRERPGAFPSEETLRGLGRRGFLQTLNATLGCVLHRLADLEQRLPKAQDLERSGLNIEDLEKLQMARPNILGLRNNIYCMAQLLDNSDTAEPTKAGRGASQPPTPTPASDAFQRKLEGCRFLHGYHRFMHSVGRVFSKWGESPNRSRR

T2: human CNTF (human, UniProt P26441 1-200, limits assumed)
T2 sequence (looked up): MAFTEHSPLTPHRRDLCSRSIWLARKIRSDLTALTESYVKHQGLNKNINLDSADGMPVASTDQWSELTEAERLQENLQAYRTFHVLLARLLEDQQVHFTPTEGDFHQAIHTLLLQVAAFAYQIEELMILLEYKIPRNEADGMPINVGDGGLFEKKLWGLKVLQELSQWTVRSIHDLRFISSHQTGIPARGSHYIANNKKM


Experiments:
[1] = target: T3, human LIF protein (human, UniProt P15018 23-202); assay: competition ELISA: human LIF coated at 1 µg/mL, LIFR-Fc 0.6125 µg/mL added together with the antibody, A450
T3 construct: Bought recombinant protein (Sino Biological / Yiqiao Shenzhou 14890-HNAH) in most assays; also called recombinant human LIF protein; rhLIF
T3 sequence (P15018 23-202 limits assumed): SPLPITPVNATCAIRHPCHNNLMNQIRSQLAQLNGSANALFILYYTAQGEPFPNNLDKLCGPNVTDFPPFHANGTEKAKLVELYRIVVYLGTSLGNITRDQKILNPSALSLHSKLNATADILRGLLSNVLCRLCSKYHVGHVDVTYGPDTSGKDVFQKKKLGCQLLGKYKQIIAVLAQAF
Procedure: The recombinant human LIF protein was coated on the enzyme label plate at a concentration of 1 μg/mL, LIFR protein (expressed fusedly with human FC) at a concentration of 0.6125 μg/mL was added (50 μL/well), and the anti-human LIF antibodies 38E10E1C11, P36-033 and 38E10E1C11R which is recombinantly expressed by CHO cells (SEQ ID NOs: 41 and 43) at different concentrations simultaneously were added separately (50 μL/well) and incubated for 2 h at room temperature. After washed four times with PBST, incubated with HRP-labeled goat anti-mouse FC secondary antibody for 1 h at room temperature. Then the plates were washed four times with PBST and added with TMB coloured solution in for 10 minutes. The absorption value at 450 nm is quantitated using an enzyme-labelling measuring instrument, and the data was analyzed and plotted using Origin pro 9 software.

[2] = target: T1, human OSM; assay: ELISA, human OSM coated at 1 µg/mL, A450, bar chart of eight antibody concentrations
Procedure: (§1) The human LIF, human IL-6, human OSM, human CNTF (purchased from Sino biological) were coated on the enzyme label plate at a concentration of 1 μg/mL separately, and the anti-human LIF antibodies 38E10E1C11, P36-033 and 5D8 at different concentrations were added separately and incubated for 1 h at room temperature. Then the plates were washed four times with PBST and incubated with HRP-labeled goat anti-mouse FC secondary antibody for 1 h at room temperature. Then the plates were washed four times with PBST and added with TMB colored solution for color development at room temperature for 10 minutes. The absorption value at 450 nm is quantitated by the enzyme-labeling measuring instrument, and the data was analyzed and plotted using Origin pro 9 software.

[3] = target: T3, human LIF protein; assay: ELISA, human LIF coated at 1 µg/mL, A450
Procedure: (§2) The recombinant human LIF protein was diluted to 1 μg/mL, was coated on the enzyme label plate, 100 μL of the protein was added into every well, and incubated overnight in 4° C. The enzyme label plates were taken out next day, and the liquid was discarded, and were washed with PBST three times and blocked with 2% BSA in PBS for 1 h at room temperature, then washed with PBST three times, and added anti-human LIF antibodies 38E10E1C11, 5D8 and P36-033 at different concentrations and incubated for 1 h at room temperature. The liquid was discarded, and the plates were washed with PBST four times. The plates were added with HRP-labeled goat anti-mouse Fab antibody or goat anti-human FC antibody and incubated for 1 h at room temperature. Then the liquid was discarded, and the plates were washed four times with PBST and incubated with TMB colored solution in 10 minutes at room temperature. Stop color development by adding 2 mol/L H₂SO₄, and the absorption value at 450 nm is quantitated using an automated plate photometer, and the results were shown in FIG. 1.

[4] = target: T2, human CNTF; assay: ELISA, human CNTF coated at 1 µg/mL, A450, bar chart of eight antibody concentrations
Procedure: as §1

[5] = target: T3, human LIF protein; assay: ELISA, human LIF coated at 1 µg/mL, A450; remark: listed apart in the source
Procedure: as §2

[6] = target: T4, recombinant mouse LIF protein (mouse, UniProt P09056 24-203); assay: ELISA, mouse LIF coated at 1 µg/mL, A450
Procedure: (§3) The recombinant mouse LIF protein (purchased from ACRO Biosystems) was diluted to 1 μg/mL, and was coated on the enzyme label plate, 100 μL of protein was added into every well, and incubated overnight in 4° C. The enzyme label plates were taken out next day, and the liquid was discarded, and were washed with PBST three times and blocked with 2% BSA in PBS for 1 h at room temperature, then washed with PBST three times, and added anti-human LIF antibodies 38E10E1C11, 5D8 and P36-033 at different concentrations and incubated for 1 h at room temperature. The liquid was discarded, and the plates were washed with PBST four times. The plates were added with HRP-labeled goat anti-mouse Fab antibody or goat anti-human FC antibody and incubated for 1 h at room temperature. Then the liquid was discarded, and the plates were washed four times with PBST and incubated with TMB colored solution in 10 minutes at room temperature. Stop color development by adding 2 mol/L H₂SO₄, and the absorption value at 450 nm is quantitated using an automated plate photometer, and the results were shown in FIG. 2.

[7] = target: T4, recombinant mouse LIF protein; assay: ELISA, mouse LIF coated at 1 µg/mL, A450; remark: listed apart in the source
Procedure: as §3

IC50 (read off the curve) [1] [µg/mL]	binding result [2]	EC50 (read off the curve) [3] [µg/mL]	binding result [4]	EC50 (read off the curve) [5] [µg/mL]	EC50 (read off the curve) [6] [µg/mL]	EC50 (read off the curve) [7] [µg/mL]	Binder
~0.2							38E10E1C11R (38E10E1C11 antibody recombinantly expressed by CHO cells) (antibody, mouse IgG1, kappa) heavy: not shown light: DIHMTQSPASLSASVGETVTITCRASENIYSYLAWYQQKQGKSPQLLVYNAKTLAEGVPSRFSGSGSGTQFSLKINSLQPEDFGSYYCQHHYVTPLTFGAGTKLELKRADAAPTVSIFPPSSEQLTSGGASVVCFLNNFYPKDINVKWKIDGSERQNGVLNSWTDQDSKDSTYSMSSTLTLTKDEYERHNSYTCEATHKTSTSPIVKSFNRNEC
	binds	~0.8	binds	~0.2	~0.4	~0.3	5D8 antibody (positive control) (antibody, human IgG1, kappa, V domains shown) VH: QVQLQESGGGLVKPGGSLRLSCAASGFTFSHAWMHWVRQAPGKGLEWVGQIKAKSDDYATYYAESVKGRFTISRDDSKNTLYLQMNSLKTEDTAVYYCTCWEWDLDFWGQGTMVTVSS VL: DIVMTQTPLSSPVTLGQPASISCRSSQSLLDSDGHTYLNWLQQRPGQPPRLLIYSVSNLESGVPDRFSGSGAGTDFTLKISRVEAEDVGVYYCMQATHAPPYTFGQGTKLEIKR
